# From patent US20230190870A1, “Method for Treating Lysosomal Storage Diseases with Histatin Peptides” (THE BOARD OF TRUSTEES OF THE UNIVERSITY OF ILLINOIS, priority 2020, published 2023)
# Square brackets hold non-standard residues; d marks the D form. Ends that are not written are not given here. pS = N[C@@H](COP(=O)(O)O)C(=O)O
# Assays:
# [1] = molecular target: T1, TMEM97 (S2R) containing HEK293T membranes (Homo sapiens, UniProt Q5BJF2); test: Radioligand binding/competition assay with [3H]-DTG (UNC PDSP); conditions: secondary radioligand binding assay; hot ligand [3H]-DTG
# T1 construct: expressed in transfected cells; host or cells: HEK293T (transient overexpression; membranes prepared by UNC PDSP)
# Candida albicans = conditions: cited from earlier work
# [2] = tested on: Human corneal epithelial cells; test: Calcium Green-2 calcium signaling in human corneal epithelial cells; type: cell-based
# Description: Calcium Signaling. Human corneal epithelial cells were treated with Hst1 or Hst5, stained with Calcium Green-2, and relative fluorescence intensity was monitored at 1, 2 and 4 hours. […] This normalization of cellular calcium levels seen after toxicity from benzalkonium chloride treatment is analogous to toxic effects seen in chronic pain and other conditions. As such, histatin peptides may of use in the amelioration of chronic pain.
# [3] = tested on: Human corneal epithelial cells; test: Cell viability of BAK-treated human corneal epithelial cells; type: cell-based; conditions: benzalkonium chloride (BAK) treatment
# Source text: (§1) Apoptosis. […] BAK and hOsm are standard inducers of corneal epithelial and neuronal cell death and toxicity, phenomena which are associated with ocular surface pain and chronic pain syndromes.
# human corneal epithelium = test: Hyperosmolarity-induced apoptotic signals (Caspase 3/7); type: cell-based; conditions: 450 mOsm
# Source text: as §1
# [4] = molecular target: T2, Recombinant full-length TMEM97 (from HEK293 cells, OriGene) (UniProt Q5BJF2 1-176); test: SPR, TMEM97 immobilized on CM5 chip
# T2 construct: Bought protein, said to be full-length; Immobilized on a CM5 chip; also called MAC30
# [5] = molecular target: T3, GST-TMEM97 (108-176), recombinant from wheat germ (Abnova) (UniProt Q5BJF2 108-176); test: SPR
# T3 construct: not shown: GST tag
# [6] = molecular target: T4, Synthetic TMEM97 (144-176) peptide; test: SPR
# T4 construct: Synthetic peptide; also called (predicted) cytoplasmic segment
# T4 peptide: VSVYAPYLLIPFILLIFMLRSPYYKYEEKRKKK
# [7] = molecular target: T5, Synthetic TMEM97 (108-176) peptide; test: SPR
# T5 construct: Synthetic peptide; also called full C-terminal synthetic TMEM97
# T5 peptide: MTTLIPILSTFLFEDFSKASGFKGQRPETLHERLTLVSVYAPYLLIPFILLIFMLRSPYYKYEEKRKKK
# [8] = molecular target: T6, Synthetic TMEM97 (108-143) peptide; test: SPR
# T6 construct: Synthetic peptide; also called (predicted) luminal segment
# T6 peptide: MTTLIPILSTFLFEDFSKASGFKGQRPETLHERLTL
# [9] = molecular target: T3, GST-TMEM97 (108-176), recombinant from …; test: SPR, GST-TMEM97 (108-176) immobilized on CM5 chip, Hst1 as analyte; GST-tagged wheat-germ TMEM97 (108-176); SPR
# [10] = molecular target: T5, Synthetic TMEM97 (108-176) peptide; test: ITC, Hst1 titrated into synthetic TMEM97 (108-176); ITC, not SPR; TMEM97 (108-176)
# [11] = molecular target: T4, Synthetic TMEM97 (144-176) peptide; test: ITC, Hst1 titrated into the C-terminal TMEM97 peptide (taken as 144-176)
# [12] = molecular target: T5, Synthetic TMEM97 (108-176) peptide; test: SPR, synthetic TMEM97 (108-176) immobilized, Hst1 as analyte; SPR; synthetic TMEM97 (108-176)
# [13] = molecular target: T5, Synthetic TMEM97 (108-176) peptide; test: ITC, Hst1 titrated into synthetic TMEM97 (108-176)
# [14] = molecular target: T4, Synthetic TMEM97 (144-176) peptide; test: SPR, synthetic TMEM97 (144-176) immobilized, Hst1 as analyte; SPR; synthetic TMEM97 (144-176)
# [15] = molecular target: T4, Synthetic TMEM97 (144-176) peptide; test: ITC, Hst1 titrated into the C-terminal TMEM97 peptide (taken as 144-176); ITC, not SPR; C-terminal fragment taken as 144-176
# T1 sequence (Q5BJF2 whole entry, species assumed): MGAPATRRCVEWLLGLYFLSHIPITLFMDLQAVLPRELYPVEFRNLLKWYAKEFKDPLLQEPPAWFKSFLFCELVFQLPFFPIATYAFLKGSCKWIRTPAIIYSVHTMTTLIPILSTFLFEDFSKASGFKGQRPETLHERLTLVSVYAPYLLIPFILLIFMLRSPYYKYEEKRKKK
molecule,measurement,setting,value
CC(C)C[C@H](NC(=O)[C@H](Cc1ccc(O)cc1)NC(=O)[C@H](CC(N)=O)NC(=O)[C@H](CO)NC(=O)[C@H](CCCNC(=N)N)NC(=O)[C@H](Cc1ccc(O)cc1)NC(=O)CNC(=O)[C@H](CCCNC(=N)N)NC(=O)[C@H](Cc1c[nH]cn1)NC(=O)[C@H](CO)NC(=O)[C@H](Cc1c[nH]cn1)NC(=O)[C@H](Cc1c[nH]cn1)NC(=O)[C@H](CCCCN)NC(=O)[C@H](CCC(=O)O)NC(=O)[C@H](Cc1c[nH]cn1)NC(=O)[C@H](Cc1ccccc1)NC(=O)[C@H](CCCCN)NC(=O)[C@H](CCCNC(=N)N)NC(=O)[C@H](CCCCN)NC(=O)[C@H](Cc1ccc(O)cc1)NC(=O)CNC(=O)[C@H](Cc1c[nH]cn1)NC(=O)[C@H](Cc1c[nH]cn1)NC(=O)[C@H](CCCNC(=N)N)NC(=O)[C@H](CCCCN)NC(=O)[C@H](C)NC(=O)[C@H](Cc1c[nH]cn1)NC(=O)[C@H](CO)NC(=O)[C@@H](N)CC(=O)O)C(=O)N[C@@H](Cc1ccc(O)cc1)C(=O)N[C@@H](CC(=O)O)C(=O)N[C@@H](CC(N)=O)C(=O)O [Hst3],Ki,[1],1.09 µM
"AKRHHGYKRKFH [Histatin P-113, histatin-derived antimicrobial peptide]",fungicidal activity,Candida albicans,fungicidal activity
C[C@H](NC(=O)[C@H](Cc1c[nH]cn1)NC(=O)[C@H](CO)NC(=O)[C@@H](N)CC(=O)O)C(=O)N[C@@H](CCCCN)C(=O)N[C@@H](CCCNC(=N)N)C(=O)N[C@@H](Cc1c[nH]cn1)C(=O)N[C@@H](Cc1c[nH]cn1)C(=O)NCC(=O)N[C@@H](Cc1ccc(O)cc1)C(=O)N[C@@H](CCCCN)C(=O)N[C@@H](CCCNC(=N)N)C(=O)N[C@@H](CCCCN)C(=O)N[C@@H](Cc1ccccc1)C(=O)N[C@@H](Cc1c[nH]cn1)C(=O)N[C@@H](CCC(=O)O)C(=O)N[C@@H](CCCCN)C(=O)N[C@@H](Cc1c[nH]cn1)C(=O)N[C@@H](Cc1c[nH]cn1)C(=O)N[C@@H](CO)C(=O)N[C@@H](Cc1c[nH]cn1)C(=O)N[C@@H](CCCNC(=N)N)C(=O)NCC(=O)N[C@@H](Cc1ccc(O)cc1)C(=O)O [Hst5],calcium signaling (relative fluorescence intensity),"[2]; 1, 2 and 4 hours",increases calcium signaling
same,elevated calcium levels after benzalkonium chloride,[2]; cells treated with 0.001% BAK,reduced elevated calcium levels
same,BAK-induced loss of cell viability,[3],abrogated
same,hyperosmolarity-induced apoptotic signals (Caspase 3/7),human corneal epithelium,abrogates the effects of toxic hyperosmolarity
same,Ki,[1],0.582 µM
HYHKFHRYYDPGSNLYKEHNHGFHHGYKDEFRRE[pS]RDS (Synthetic scrambled control of Hst1; also called scrambled peptide control version of Hst1) [Hst1 scrambled peptide (Hst1SP)],binding result,[4],no binding
"DSHEKRHHGYRRKFHEKHHSHREFPF (not fully specified (residue 2); ends and bridges not checked, Fragment of Hst1) [Hst1(1-26)]",Kd,[5],2.1 µM
same,Kd,[6],1.7 µM
same,Kd,[7],1.3 µM
same,binding result,[8],no binding
"DSHEKRHHGYRRKF (not fully specified (residue 2); ends and bridges not checked, Fragment of Hst1) [Hst1(1-14)]",binding result,[6],no binding
same,binding result,[7],no binding
same,binding result,[8],no binding
D[pS]HEKRHHGYRRKFHEKHHSHREFPFYGDYGSNYLYDN (Synthetic linear peptide made by Fmoc solid-phase synthesis; also called Hst1(1-38); H1) [Histatin 1 (Hst1)],Kd,[5],1.5 µM
same,Kd,[6],2.4 µM
same,Kd,[7],2.4 µM
same,binding result,[8],no binding
same,Kd,[9],1.6 µM
same,Kd,[10],0.89 µM
same,ΔH,[11],-790 kcal/mol
same,ΔS,[11],-2280 cal/mol K
same,Kd,[12],2.8 µM
same,ΔH,[13],-4.9 kcal/mol
same,ΔS,[13],11.6 cal/mol K
same,Kd,[14],2.7 µM
same,Kd,[15],0.46 µM
